Biological target: the molecule itself
Assay: crystal structure; apo YicC; hanging drop vapor diffusion, 0.1M Tris pH 8.5, 0.3M lithium sulfate, 25% PEG 3350; six copies in the asymmetric unit

B1: YicC (E. coli endoribonuclease, proposed name RNase CS) (enzyme, UniProt P23839 1-287, looked up)
chain: MIRSMTAYARREIKGEWGSATWEMRSVNQRYLETYFRLPEQFRSLEPVVRERIRSRLTRGKVECTLRYEPDVSAQGELILNEKLAKQLVTAANWVKMQSDEGEINPVDILRWPGVMAAQEQDLDAIAAEILAALDGTLDDFIVARETEGQALKALIEQRLEGVTAEVVKVRSHMPEILQWQRERLVAKLEDAQVQLENNRLEQELVLLAQRIDVAEELDRLEAHVKETYNILKKKEAVGRRLDFMMQEFNRESNTLASKSINAEVTNSAIELKVLIEQMREQIQNIE
notes: YicC of E. coli, the prototypical member of the YicC family of endoribonucleases; Expressed from a modified pET47b vector; also called apo YicC; source: E. coli (culture of EG1261, IPTG induced), purified (Ni-NTA, SUMO-protease cleavage, Superdex 200; for cryo-EM also Hitrap Q)
  stoichiometry N: 6
